According to patent publication US20190010498, “CHEMICALLY MODIFIED AMPA RECEPTOR RNA APTAMERS” (The Research Foundation for the State University of New York, published 2019):

Legend:
[1] = molecular target: T1, GluA2Qflip AMPA receptor (homomeric, Q/R site unedited) (UniProt P19491-2 P19491-2:22-883); test: inhibition; whole-cell current recording, closed-channel (0.1 mM glutamate), -60 mV, 22 C; settings: tags: transiently expressed in HEK-293S cells; chain copies: 4 inferred
Description: Functional Characterization of FN1040 by Whole-Cell Recording. Using whole-cell current recording, we first tested each of the six putative RNA aptamers against GluA2Qflip, the SELEX target. […] To verify this, we tested the aptamer at increasing concentrations against the GluA2Qflip channel expressed in HEK-293 cells (FIG. 1b). On the closed-channel conformation, we observed a linear relationship between the A/A(I) value and the aptamer concentration (FIG. 1b). Using eq 1 (see Data Analysis of Whole-Cell Current Amplitude), we estimated that the inhibition constant, K, for the closed-channel form of GluA2Qflip was 2.3±0.7 μM (FIG. 1b).
Whole-Cell Current Recording. […] For recording of the NMDA channels, the intracellular solution contained (in mM) 140 CsCl, 1 MgCl₂, 0.1 EGTA, and 10 HEPES (pH 7.2 adjusted by Mg(OH)₂) and the extracellular solution contained 2 μM of glycine and (in mM) 135 NaCl, 5.4 KCl, 1.8 CaCl₂, 10 glucose and 5 HEPES (pH 7.2 adjusted by NaOH).¹⁰ The glutamate-induced whole-cell current was recorded using an Axopatch-200B amplifier at a cutoff frequency of 2-20 kHz by a built-in, eight-pole Bessel filter and digitized at 5-50 kHz sampling frequency using a Digidata 1322A from Axon Instruments (Molecular Devices, Sunnyvale, Calif.). […]

[2] = molecular target: T1, GluA2Qflip AMPA receptor (homomeric, …); test: competition; homologous competition with 32P-FN1040, nylon filter; 150 mM NaCl, 3 mM KCl, 1 mM CaCl2, 1 mM MgCl2, 10 mM HEPES pH 7.4; 10 ng/ul tRNA; NBQX displaces about 50%, glutamate about 30%, BDZ-f/BDZ-g none; settings: tags: transiently expressed in HEK-293S cells; chain copies: 4 inferred
Description: Binding Affinity of FN1040 on GluA2Qflip. The binding affinity, Kd, of FN1040 for GluA2Qflip was estimated from a homologous competitive binding experiment. In this experiment, intact GluA2Qflip receptors embedded in HEK-293 cell membrane fragments were mixed with ³²P-labeled or hot FN1040 (see RNA 5′-end Labeled with ³²P.). The unlabeled FN1040 (or cold FN1040) was used to compete with the hot FN1040 for the binding to GluA2Qflip receptors. As shown, the normalized radioactivity as a function of the cold FN1040 was determined (FIG. 1c).
Homologous Competitive Binding Assay. FN1040 was transcribed in a transcription reaction mixture with additional 0.4 μM of ³²P-α-ATP (800 Ci/mmol). The ³²P-FN1040 product was separated by 8M urea PAGE and recovered by electroelution method (Elutrap, GE Health). Before mixing with the cell membrane fragments, the RNA was run through a refolding procedure, i.e. 95° C./3′→50° C./30′→room temperature/30′. The binding mixture contained 0.6 nM of GluA2Qflip receptor, 10 ng/μl of yeast tRNA, 10 nM of ³²P-FN1040, and 0 to 1.5 μM of unlabeled FN1040 in the extracelluar buffer. […] The radioactivity remaining on the filter was counted in a scintillation counter (Beckman LS6500). […] Assuming a one-site binding model, we determined the Kd of the aptamer bound to the receptor by fitting the binding data to eq 2⁵² below, […]

T1 sequence (P19491 other isoform, or with tags, fused parts or gaps): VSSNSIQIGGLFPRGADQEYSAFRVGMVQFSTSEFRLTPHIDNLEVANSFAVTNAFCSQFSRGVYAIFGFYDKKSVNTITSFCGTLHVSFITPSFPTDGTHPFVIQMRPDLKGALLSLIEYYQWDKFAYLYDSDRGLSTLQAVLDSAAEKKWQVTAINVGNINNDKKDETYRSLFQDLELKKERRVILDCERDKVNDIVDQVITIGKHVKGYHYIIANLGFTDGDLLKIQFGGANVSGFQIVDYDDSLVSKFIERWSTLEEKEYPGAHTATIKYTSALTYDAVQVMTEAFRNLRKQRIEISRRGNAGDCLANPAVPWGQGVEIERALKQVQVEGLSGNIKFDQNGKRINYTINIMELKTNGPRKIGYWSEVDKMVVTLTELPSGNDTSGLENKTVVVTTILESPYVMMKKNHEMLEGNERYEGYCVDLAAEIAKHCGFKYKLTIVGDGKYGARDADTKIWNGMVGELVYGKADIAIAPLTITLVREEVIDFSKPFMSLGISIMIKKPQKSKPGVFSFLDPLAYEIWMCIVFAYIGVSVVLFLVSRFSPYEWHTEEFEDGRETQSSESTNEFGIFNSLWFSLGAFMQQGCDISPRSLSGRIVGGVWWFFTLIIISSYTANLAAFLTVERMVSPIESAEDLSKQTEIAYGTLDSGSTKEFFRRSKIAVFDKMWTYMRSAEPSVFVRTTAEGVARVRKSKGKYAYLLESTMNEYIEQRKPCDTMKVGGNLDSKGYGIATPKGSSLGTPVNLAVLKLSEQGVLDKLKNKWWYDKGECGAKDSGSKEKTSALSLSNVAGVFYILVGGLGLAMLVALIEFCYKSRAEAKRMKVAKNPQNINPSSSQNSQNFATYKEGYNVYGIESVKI

B1: FN1040 (ssRNA)
RNA: GGGAGAAUUCAACUGCCAUCUAGGCACGCUACUGUGAGUGUUGUGAUGGCGGCUGAACGAUCGAAACGGAACUGUAGUACUACAAGCUUCUGGACUCGGU
modifications: 2'-F at all A, C and U; G is 2'-OH
Ki [1]: 2300 nM
Kd [2]: 20 nM
